One data set concerns the target T1, CCK2R (Rattus norvegicus, UniProt P30553).
T1 construct: host or cells: AR42J cells
T1 sequence (P30553 1-452): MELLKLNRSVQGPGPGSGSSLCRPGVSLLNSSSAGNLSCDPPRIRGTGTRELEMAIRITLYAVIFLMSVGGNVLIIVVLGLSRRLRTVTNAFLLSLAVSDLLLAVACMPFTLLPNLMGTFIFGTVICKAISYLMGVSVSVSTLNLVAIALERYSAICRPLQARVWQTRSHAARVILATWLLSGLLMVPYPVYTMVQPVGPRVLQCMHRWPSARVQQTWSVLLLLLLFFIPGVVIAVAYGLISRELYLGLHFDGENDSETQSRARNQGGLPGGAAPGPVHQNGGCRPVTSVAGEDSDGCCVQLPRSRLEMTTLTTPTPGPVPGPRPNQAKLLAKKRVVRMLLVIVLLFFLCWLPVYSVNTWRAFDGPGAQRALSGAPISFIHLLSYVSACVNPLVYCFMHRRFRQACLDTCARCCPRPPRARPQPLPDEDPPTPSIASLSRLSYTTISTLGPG
Description: Competitive cell-binding assay on AR42J cells with 125I-C3 as competitive ligand. Conditions: for Relative Binding Affinity CCK2R: based on mean IC50, C-2 = 1.00. On the procedure: (§1) AR42J cells (ATCC) were maintained in RPMI-1640 medium (Gibco) supplemented with 15% fetal bovine serum (Gibco) and 1% penicillin-streptomycin (BI) at 37° C. in a humidified incubator with 5% CO2. The culture medium was replaced with fresh medium every 2-3 days. Experiments were performed with cells at 70-80% confluence.
(§2) Binding Affinity Tested by Using ^125I-Labeled Competitive Ligands.
(§3) The binding affinities of test compounds were determined by a competitive cell-binding assay using ^125I-C1 and ^125I-C3 as the competitive ligand. The suspended AR42J cells at a density of 1~3×10^6 cells/mL in binding buffer (RPMI-1640 medium supplemented with 0.25% bovine serum albumin) were transferred to a MultiScreen-DV Filter Plate (Millipore) with 100 μL per well except the blank group where the binding buffer was used instead. The cells were then incubated with ^125I-C1 and ^125I-C3 (0.02 μCi/well) in the presence of increasing concentrations (0-10000 nM) of test compounds at 37° C. for 1 h (n=3). The final volume in each well was maintained at 200 μL and insufficient volume was adjusted by the binding buffer. After the 1 h incubation, unbound ^125I-competitive ligands were removed by filtration using a Multiscreen vacuum manifold (Millipore) followed by rinses with the binding buffer (3 times). The filters were collected, and their radioactivity were individually measured by γ counter (2480 WIZARD2, PerkinElmer). The best-fit IC50value (inhibitory concentration when 50% of the bound ^125I-C1 and ^125l I-C3 on cells were displaced) of test compounds were calculated by fitting the data with nonlinear regression using GraphPad Prism 8.0.1.

The next data set has as its target T2, SSTR2 (Rattus norvegicus, UniProt P30680).
T2 construct: host or cells: AR42J cells
Description: Competitive cell-binding assay on AR42J cells with 125I-C1 as competitive ligand. Conditions: for Relative Binding Affinity SSTR2: based on mean IC50, C-1 = 1.00. Here is the method: as §1, §2, §3

A further data set is described as follows: in vivo. Conditions: BALB/c nude, mouse, in vivo, iv, total radioactivity. An outline of the steps: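 Compounds labelled with ^177Lu in 0.5 M NaOAc pH 4.5 at 95° C for 15 min, then used directly or diluted in PBS with 3 mg/mL ascorbate. BALB/c nude mice bore subcutaneous AR42J flank xenografts (0.05-0.50 g). Organs excised at 4, 24 and 72 h post-injection and γ-counted for % ID and % ID/g.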

T2 sequence (P30680 whole entry): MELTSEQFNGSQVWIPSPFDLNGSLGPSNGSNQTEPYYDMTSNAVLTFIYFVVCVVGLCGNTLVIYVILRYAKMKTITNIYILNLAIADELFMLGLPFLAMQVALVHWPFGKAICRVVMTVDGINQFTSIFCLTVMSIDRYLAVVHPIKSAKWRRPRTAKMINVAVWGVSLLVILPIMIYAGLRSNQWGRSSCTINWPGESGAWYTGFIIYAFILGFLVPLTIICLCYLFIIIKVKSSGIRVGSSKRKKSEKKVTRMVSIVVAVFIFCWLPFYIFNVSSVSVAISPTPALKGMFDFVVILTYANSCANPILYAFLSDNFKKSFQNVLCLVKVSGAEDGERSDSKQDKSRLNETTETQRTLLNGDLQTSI

Consider `C[C@@H](O)[C@H](NC(=O)[C@@H]1CSSC[C@H](NC(=O)[C@@H](Cc2ccccc2)NC(=O)COCCOCCNC(=O)C(CCCCNC(=O)CC[C@H](NC(=O)CNC(=O)c2cccc(NC(=O)N[C@@H]3CN(C4CCCCC4)c4ccccc4N(CC(=O)C(C)(C)C)C3=O)c2)C(=O)O)NC(=O)COCCOCCNC(=O)CC[C@H](NC(=O)CC[C@H](NC(=O)CN2CCN(CC(=O)O)CCN(CC(=O)O)CCN(CC(=O)O)CC2)C(=O)O)C(=O)O)C(=O)N[C@@H](Cc2ccc(O)cc2)C(=O)N[C@H](Cc2c[nH]c3ccccc23)C(=O)N[C@@H](CCCCN)C(=O)N[C@@H]([C@@H](C)O)C(=O)N1)C(=O)O` (stereo in doubt) [Compound I-14, DOTA-gE-gE-OEG-K(-gE-G-Z360)-OEG-f[CYwKTC]T-OH], for which the “Relative Binding Affinity CCK2R” value on CCK2R is on record as 3.80. The “Relative Binding Affinity SSTR2” value on SSTR2 worked out at 3.50. Moreover, the tissue to tissue ratio at 24 h is 0.2 in the data set “in vivo” (T/K Tumor/Kidney ratio); 6.7 in “in vivo” (T/L Tumor/Liver ratio); 4.4 in the data set “in vivo” (T/P Tumor/Pancreas ratio); 27 in “in vivo” (T/Sp Tumor/Spleen ratio); 6.6 in the data set “in vivo” (T/St Tumor/Stomach ratio). The tissue uptake at 24 h in the data set “in vivo” (uptake Kidney) was 68.6 %ID/g; in the data set “in vivo” (uptake Liver), 2.24 %ID/g; in “in vivo” (uptake Pancreas), 3.37 %ID/g; in “in vivo” (uptake Spleen) it was 0.56 %ID/g; in the data set “in vivo” (uptake Stomach), 2.25 %ID/g; in “in vivo” (uptake Tumor), 14.9 %ID/g.
Regarding `C[C@@H](O)[C@H](NC(=O)[C@@H]1CSSC[C@H](NC(=O)[C@@H](Cc2ccccc2)NC(=O)COCCOCCNC(=O)[C@H](CCCCNC(=O)[C@H](CCC(=O)O)NC(=O)c2cccc(NC(=O)N[C@@H]3CN(C4CCCCC4)c4ccccc4N(CC(=O)C(C)(C)C)C3=O)c2)NC(=O)CN2CCN(CC(=O)O)CCN(CC(=O)O)CCN(CC(=O)O)CC2)C(=O)N[C@@H](Cc2ccc(O)cc2)C(=O)N[C@H](Cc2c[nH]c3ccccc23)C(=O)N[C@@H](CCCCN)C(=O)N[C@@H]([C@@H](C)O)C(=O)N1)C(N)=O` [Compound I-3, DOTA-K(-E-Z360)-OEG-f[CYwKTC]T-NH2], the “Relative Binding Affinity CCK2R” value on CCK2R is recorded as 5.3. Moreover, the “Relative Binding Affinity SSTR2” value at SSTR2 came out at 0.50. The tissue to tissue ratio at 24 h in “in vivo” (T/K Tumor/Kidney ratio) was determined as 0.8; in the data set “in vivo” (T/L Tumor/Liver ratio), 12; in “in vivo” (T/P Tumor/Pancreas ratio), 13; in the data set “in vivo” (T/Sp Tumor/Spleen ratio), 45; in “in vivo” (T/St Tumor/Stomach ratio), 4.2. The tissue uptake at 24 h turned out to be 16.5 %ID/g in “in vivo” (uptake Kidney); 1.16 %ID/g in the data set “in vivo” (uptake Liver); 1.05 %ID/g in “in vivo” (uptake Pancreas); 0.3 %ID/g in the data set “in vivo” (uptake Spleen); 3.24 %ID/g in the data set “in vivo” (uptake Stomach); 13.6 %ID/g in “in vivo” (uptake Tumor).
Take `C[C@@H](O)[C@H](NC(=O)[C@@H]1CSSC[C@H](NC(=O)[C@@H](Cc2ccccc2)NC(=O)CC[C@H](NC(=O)[C@H](CCCCNC(=O)CC[C@H](NC(=O)CNC(=O)c2cccc(NC(=O)N[C@@H]3CN(C4CCCCC4)c4ccccc4N(CC(=O)C(C)(C)C)C3=O)c2)C(=O)O)NC(=O)CC[C@H](NC(=O)CN2CCN(CC(=O)O)CCN(CC(=O)O)CCN(CC(=O)O)CC2)C(=O)O)C(=O)O)C(=O)N[C@@H](Cc2ccc(O)cc2)C(=O)N[C@H](Cc2c[nH]c3ccccc23)C(=O)N[C@@H](CCCCN)C(=O)N[C@@H]([C@@H](C)O)C(=O)N1)C(=O)O` [Compound I-9, DOTA-gE-K(-gE-G-Z360)-gE-f[CYwKTC]T-OH]: the “Relative Binding Affinity CCK2R” value at CCK2R amounted to 13.5. The “Relative Binding Affinity SSTR2” value on SSTR2 was 2.85. In addition, the tissue to tissue ratio at 24 h in the data set “in vivo” (T/K Tumor/Kidney ratio) is 0.3; in “in vivo” (T/L Tumor/Liver ratio), 8.3; in the data set “in vivo” (T/P Tumor/Pancreas ratio), 3.8; in “in vivo” (T/Sp Tumor/Spleen ratio), 11; in the data set “in vivo” (T/St Tumor/Stomach ratio) it was 3.4. Moreover, the tissue uptake at 24 h in the data set “in vivo” (uptake Kidney) is 42.2 %ID/g; in “in vivo” (uptake Liver), 1.31 %ID/g; in “in vivo” (uptake Pancreas), 2.89 %ID/g; in “in vivo” (uptake Spleen), 1.03 %ID/g; in “in vivo” (uptake Stomach), 3.22 %ID/g; in the data set “in vivo” (uptake Tumor) it was 10.9 %ID/g.
With `C[C@@H](O)[C@H](NC(=O)[C@@H]1CSSC[C@H](NC(=O)[C@@H](Cc2ccccc2)NC(=O)COCCOCCNC(=O)[C@H](CCCCNC(=O)CCC(C(=O)O)N2CCN(CC(=O)O)CCN(CC(=O)O)CCN(CC(=O)O)CC2)NC(=O)COCCOCCNC(=O)CC[C@H](NC(=O)CC[C@H](NC(=O)c2cccc(NC(=O)N[C@@H]3CN(C4CCCCC4)c4ccccc4N(CC(=O)C(C)(C)C)C3=O)c2)C(=O)O)C(=O)O)C(=O)N[C@@H](Cc2ccc(O)cc2)C(=O)N[C@H](Cc2c[nH]c3ccccc23)C(=O)N[C@@H](CCCCN)C(=O)N[C@@H]([C@@H](C)O)C(=O)N1)C(=O)O` (stereo partly shown) [Compound I-13, (Z360)- gE- gE- OEG- K(DOTAGA)- OEG- f[CYwKTC]T- OH], the IC50 on CCK2R (AR42J cells, 125I-C3 competitive ligand, 37° C. 1 h, read-out: CCK2R/IC50) was 1.6 nM; at SSTR2 (AR42J cells, 125I-C1 competitive ligand, 37° C. 1 h, read-out: SSTR2/IC50), 12.3 nM. Moreover, the “Relative Binding Affinity CCK2R” value on CCK2R came out at 10.8. Besides, the “Relative Binding Affinity SSTR2” value at SSTR2 is given as 0.23. Further, the tissue to tissue ratio at 24 h in “in vivo” (T/K Tumor/Kidney ratio) stood at 0.3; in the data set “in vivo” (T/L Tumor/Liver ratio), 12; in “in vivo” (T/P Tumor/Pancreas ratio) it was 12; in the data set “in vivo” (T/Sp Tumor/Spleen ratio) it was 32; in “in vivo” (T/St Tumor/Stomach ratio), 6.8. The tissue uptake at 24 h in “in vivo” (uptake Kidney) was 46.7 %ID/g; in “in vivo” (uptake Liver), 1.21 %ID/g; in “in vivo” (uptake Pancreas), 1.21 %ID/g; in “in vivo” (uptake Spleen), 0.47 %ID/g; in the data set “in vivo” (uptake Stomach) it was 2.19 %ID/g; in “in vivo” (uptake Tumor), 14.8 %ID/g.
Take `C[C@@H](O)[C@H](NC(=O)[C@@H]1CSSC[C@H](NC(=O)[C@@H](Cc2ccccc2)NC(=O)[C@H](CCCCNC(=O)CC[C@H](NC(=O)CNC(=O)c2cccc(NC(=O)N[C@@H]3CN(C4CCCCC4)c4ccccc4N(CC(=O)C(C)(C)C)C3=O)c2)C(=O)O)NC(=O)COCCOCCNC(=O)CCC(C(=O)O)N2CCN(CC(=O)O)CCN(CC(=O)O)CCN(CC(=O)O)CC2)C(=O)N[C@@H](Cc2ccc(O)cc2)C(=O)N[C@H](Cc2c[nH]c3ccccc23)C(=O)N[C@@H](CCCCN)C(=O)N[C@@H]([C@@H](C)O)C(=O)N1)C(=O)O` (stereo partly shown) [Compound I-19, DOTAGA- OEG- K(-gE- G- Z360)- f[CYwKTC]T- OH]: the “Relative Binding Affinity CCK2R” value on CCK2R is recorded as 270. Moreover, the “Relative Binding Affinity SSTR2” value on SSTR2 is reported as 0.46. Further, the tissue to tissue ratio at 24 h in “in vivo” (T/K Tumor/Kidney ratio) was determined as 0.6; in “in vivo” (T/L Tumor/Liver ratio), 35; in “in vivo” (T/P Tumor/Pancreas ratio) it was 15; in “in vivo” (T/Sp Tumor/Spleen ratio) it was 46; in the data set “in vivo” (T/St Tumor/Stomach ratio), 4.3. The tissue uptake at 24 h amounted to 51.6 %ID/g in “in vivo” (uptake Kidney); 0.96 %ID/g in “in vivo” (uptake Liver); 2.07 %ID/g in the data set “in vivo” (uptake Pancreas); 0.68 %ID/g in the data set “in vivo” (uptake Spleen); 7.24 %ID/g in the data set “in vivo” (uptake Stomach); 31.3 %ID/g in “in vivo” (uptake Tumor).

For orientation: tissue uptake means the share of the injected amount in each gram of the tissue.

The values above are taken from patent US20260248972A1, “DUAL RECEPTOR TARGETING RADIOLIGANDS AND USES THEREOF RELATED APPLICATIONS” (priority 2022, published 2026).
